# Measured values reported in patent publication US20250263489A1 (TEIJIN PHARMA, published 2025).
# Positions count from the first letter of the chain named. Like-named read-outs stand apart in the source and are kept apart here.
# B1: FW1_var9 antibody (antibody, V domains shown)
# VH: QVQLVQSGAEVKKPGASVKVSCKASGYTFTSYWMHWVRQAPGQGLEWMGETNPSNSVTNYAQKFQGRVTLTVDTSTSTAYMELSSLRSEDTAVYYCTIGRGRGFAYWGQGTLVTVSS
# VL: DIQMTQSPSSVSASVGDRVTITCRASQNINFWLSWYQQKPGKAPKLLIYKASNLHTGVPSRFSGSGSGTDFTLTISSLQPEDFATYYCLQGQSYPYTFGGGTKLEIK
# B2: FW2_var2 antibody (antibody, V domains shown)
# VH: B1 VH with A16S, T74K
# VL: B1 VL with V11L, A43I, F83V
# B3: IGF11-16 with alanine substitution of S at position 56 (CDR-H2) (antibody, mouse IgG1, V domains shown)
# VH: QIQLQQPGAELVKPGASVKLSCKAPGYTFTSYWMHWVKQRPGQGLEWIGETNPSNAVTNYNEKFKSKATLTVDKSSSTAYMQLSSLTSEDSAVYYCTIGRGRGFAYWGQGTLVTVSA
# VL: B1 VL with T5N, V11L, V15L, R18T, V19I, Y36C, K42N, A43I, F83I
# B4: FW1_var10 antibody (antibody, V domains shown)
# VH: B1 VH with V93T
# VL: B1 VL
# B5: IGF11-16 with alanine substitution of N at position 55 (CDR-H2) (antibody, mouse IgG1, V domains shown)
# VH: B3 VH with N55A, A56S
# VL: B1 VL with T5N, V11L, V15L, R18T, V19I, Y36C, K42N, A43I, F83I
# B6: IGF11-16 with alanine substitution of F at position 64 (CDR-H2) (antibody, mouse IgG1, V domains shown)
# VH: B3 VH with A56S, F64A
# VL: B1 VL with T5N, V11L, V15L, R18T, V19I, Y36C, K42N, A43I, F83I
# B7: IGF11-16 with alanine substitution of N at position 59 (CDR-H2) (antibody, mouse IgG1, V domains shown)
# VH: B3 VH with A56S, N59A
# VL: B1 VL with T5N, V11L, V15L, R18T, V19I, Y36C, K42N, A43I, F83I
# B8: FW1_var10_NEKS (antibody, human IgG4, V domains shown)
# VH: B1 VH with A61N, Q62E, Q65K, G66S, V93T
# VL: B1 VL
# B9: FW1_var9-hH6a (antibody, V domains shown)
# VH: B1 VH with V20L
# VL: B1 VL
# B10: FW1_var9-hH3a (antibody, V domains shown)
# VH: B1 VH with S7P
# VL: B1 VL
# B11: IGF11-16 with alanine substitution of N at position 52 (CDR-H2) (antibody, mouse IgG1, V domains shown)
# VH: B3 VH with N52A, A56S
# VL: B1 VL with T5N, V11L, V15L, R18T, V19I, Y36C, K42N, A43I, F83I
# B12: IGF11-16 with alanine substitution of W at position 33 (CDR-H1) (antibody, mouse IgG1, V domains shown)
# VH: B3 VH with W33A, A56S
# VL: B1 VL with T5N, V11L, V15L, R18T, V19I, Y36C, K42N, A43I, F83I
# B13: FW1_var14 antibody (antibody, V domains shown)
# VH: B1 VH with V93T
# VL: B1 VL with K45R
# B14: IGF11-16 with alanine substitution of R at position 102 (CDR-H3) (antibody, mouse IgG1, V domains shown)
# VH: B3 VH with A56S, R102A
# VL: B1 VL with T5N, V11L, V15L, R18T, V19I, Y36C, K42N, A43I, F83I
# B15: FW1_var14_NEKS (antibody, human IgG4, V domains shown)
# VH: B1 VH with A61N, Q62E, Q65K, G66S, V93T
# VL: B1 VL with K45R
# B16: FW1_var9-hH2a (antibody, V domains shown)
# VH: B1 VH with V5Q
# VL: B1 VL
# B17: FW1_var9-hH4a (antibody, V domains shown)
# VH: B1 VH with V11L
# VL: B1 VL
# B18: IGF11-16 with alanine substitution of S at position 54 (CDR-H2) (antibody, mouse IgG1, V domains shown)
# VH: B3 VH with S54A, A56S
# VL: B1 VL with T5N, V11L, V15L, R18T, V19I, Y36C, K42N, A43I, F83I
# B19: FW1_var9-hH5a (antibody, V domains shown)
# VH: B1 VH with K12V
# VL: B1 VL
# B20: FW1_var9-hH1a (antibody, V domains shown)
# VH: B1 VH with V2I
# VL: B1 VL
# B21: IGF11-16 with alanine substitution of H at position 35 (CDR-H1) (antibody, mouse IgG1, V domains shown)
# VH: B3 VH with H35A, A56S
# VL: B1 VL with T5N, V11L, V15L, R18T, V19I, Y36C, K42N, A43I, F83I
# B22: FW1_var9-hH7a (antibody, V domains shown)
# VH: B1 VH with S25P
# VL: B1 VL
# Tests used:
# Assay in all cases: cell-based or functional assay
# [1] = target: T1, IGF-1 receptor on the cells of the PathHunter IGF1R Functional Assay (DiscoverX) (UniProt P08069 31-1367)
# [2] = target: T1, IGF-1 receptor on the cells of the …; remark: listed apart in the source
# [3] = target: T1, IGF-1 receptor on the cells of the …; remark: listed apart in the source
# [4] = target: T1, IGF-1 receptor on the cells of the …; remark: listed apart in the source
# T1 sequence (P08069 31-1367): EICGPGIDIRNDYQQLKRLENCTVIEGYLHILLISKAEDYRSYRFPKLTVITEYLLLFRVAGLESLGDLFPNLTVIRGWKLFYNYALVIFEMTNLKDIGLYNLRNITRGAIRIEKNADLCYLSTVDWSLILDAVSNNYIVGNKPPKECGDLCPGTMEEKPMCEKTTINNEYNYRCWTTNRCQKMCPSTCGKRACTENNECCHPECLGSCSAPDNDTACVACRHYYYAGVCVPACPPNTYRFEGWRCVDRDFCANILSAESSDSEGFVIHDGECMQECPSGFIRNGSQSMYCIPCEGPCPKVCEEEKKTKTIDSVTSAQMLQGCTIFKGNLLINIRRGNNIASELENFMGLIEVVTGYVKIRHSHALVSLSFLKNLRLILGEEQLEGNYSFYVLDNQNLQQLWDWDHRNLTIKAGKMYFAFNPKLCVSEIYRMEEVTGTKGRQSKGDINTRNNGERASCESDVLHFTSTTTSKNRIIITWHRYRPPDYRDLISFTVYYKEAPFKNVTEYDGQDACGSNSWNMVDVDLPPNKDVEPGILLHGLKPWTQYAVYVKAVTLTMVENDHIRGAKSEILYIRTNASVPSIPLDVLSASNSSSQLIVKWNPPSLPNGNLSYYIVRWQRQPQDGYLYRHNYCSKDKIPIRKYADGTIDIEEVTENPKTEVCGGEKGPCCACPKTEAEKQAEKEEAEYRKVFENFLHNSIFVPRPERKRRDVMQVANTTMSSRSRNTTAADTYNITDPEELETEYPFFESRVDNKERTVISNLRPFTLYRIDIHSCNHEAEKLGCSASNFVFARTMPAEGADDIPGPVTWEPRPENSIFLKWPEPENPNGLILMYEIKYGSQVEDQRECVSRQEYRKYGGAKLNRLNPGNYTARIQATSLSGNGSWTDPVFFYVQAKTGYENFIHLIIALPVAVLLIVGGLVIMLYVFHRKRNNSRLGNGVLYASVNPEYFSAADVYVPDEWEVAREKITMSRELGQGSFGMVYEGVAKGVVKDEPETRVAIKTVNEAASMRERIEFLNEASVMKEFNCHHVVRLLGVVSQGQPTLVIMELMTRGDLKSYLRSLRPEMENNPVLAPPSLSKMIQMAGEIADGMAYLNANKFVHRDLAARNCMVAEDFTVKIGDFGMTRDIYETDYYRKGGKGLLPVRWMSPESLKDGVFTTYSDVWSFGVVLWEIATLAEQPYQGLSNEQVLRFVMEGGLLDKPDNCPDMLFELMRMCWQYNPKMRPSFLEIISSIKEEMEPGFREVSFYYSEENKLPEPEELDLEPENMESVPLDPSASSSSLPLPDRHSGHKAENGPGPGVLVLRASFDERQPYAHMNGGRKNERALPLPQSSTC
Binder,"Signal activation EC50 vs IGF11-16, PathHunter [2] [ratio vs IGF11-16]","Signal activation Emax vs IGF11-16, PathHunter [2] [ratio vs IGF11-16]","Signal intensity ratio (compared to IGF11-16) at 16.7 nM, PathHunter [4]",other results
B1,,,,"Activation intensity (RLU), PathHunter [1]: 1450 RLU; Fluorescence intensity (0.1 nM) (RLU), PathHunter [1]: 591 RLU; Fluorescence intensity (12.5 nM) (RLU), PathHunter [1]: 2040 RLU; Ratio of activation intensity, PathHunter [1]: 0.67 relative to IGF11-16"
B2,,,,"Activation intensity (RLU), PathHunter [1]: 1320 RLU; Fluorescence intensity (0.1 nM) (RLU), PathHunter [1]: 572 RLU; Fluorescence intensity (12.5 nM) (RLU), PathHunter [1]: 1890 RLU; Ratio of activation intensity, PathHunter [1]: 0.61 relative to IGF11-16"
B3,2.9,1.1,,
B4,,,,"Activation intensity (RLU), PathHunter [1]: 1350 RLU; Fluorescence intensity (0.1 nM) (RLU), PathHunter [1]: 516 RLU; Fluorescence intensity (12.5 nM) (RLU), PathHunter [1]: 1860 RLU; Ratio of activation intensity, PathHunter [1]: 0.62 relative to IGF11-16"
B5,3,1,,
B6,2.4,0.9,,
B7,2.3,0.9,,
B8,,,,"Activation intensity (RLU), PathHunter [3]: 1960 RLU; Fluorescence intensity (0.1 nM) (RLU), PathHunter [3]: 223 RLU; Fluorescence intensity (12.5 nM) (RLU), PathHunter [3]: 2190 RLU; Ratio of activation intensity, PathHunter [3]: 0.55 relative to IGF11-16"
B9,,,0.55 ratio to IGF11-16,
B10,,,0.6 ratio to IGF11-16,
B11,2.7,0,,
B12,0.5,0,,
B13,,,,"Activation intensity (RLU), PathHunter [1]: 1340 RLU; Fluorescence intensity (0.1 nM) (RLU), PathHunter [1]: 558 RLU; Fluorescence intensity (12.5 nM) (RLU), PathHunter [1]: 1900 RLU; Ratio of activation intensity, PathHunter [1]: 0.62 relative to IGF11-16"
B14,54.4,4.8,,
B15,,,,"Activation intensity (RLU), PathHunter [3]: 1740 RLU; Fluorescence intensity (0.1 nM) (RLU), PathHunter [3]: 221 RLU; Fluorescence intensity (12.5 nM) (RLU), PathHunter [3]: 1960 RLU; Ratio of activation intensity, PathHunter [3]: 0.49 relative to IGF11-16"
B16,,,0.54 ratio to IGF11-16,
B17,,,0.65 ratio to IGF11-16,
B18,2.5,1,,
B19,,,0.56 ratio to IGF11-16,
B20,,,0.7 ratio to IGF11-16,
B21,2.2,1,,
B22,,,1.09 ratio to IGF11-16,
